Experiments:
Assay in all cases: SPR
FGFR2 (IIIb) = FGFR2 (IIIb) (Homo sapiens (assumed), UniProt P21802-3)
FGFR3 (IIIb) = FGFR3 (IIIb) (Homo sapiens (assumed), UniProt P22607-2)
FGFR4 = FGFR4 (Homo sapiens (assumed), UniProt P22455)
FGFR1β (IIIc)/Fc = FGFR1β (IIIc)/Fc (Homo sapiens, UniProt P11362, strain, biotinylated)
FGFR1 (IIIb) = FGFR1 (IIIb) (Homo sapiens, FGFR1 splice form IIIb, UniProt P11362, strain)
Chain of FGFR1 (IIIb) (P11362 whole entry, looked up, change not shown, canonical isoform): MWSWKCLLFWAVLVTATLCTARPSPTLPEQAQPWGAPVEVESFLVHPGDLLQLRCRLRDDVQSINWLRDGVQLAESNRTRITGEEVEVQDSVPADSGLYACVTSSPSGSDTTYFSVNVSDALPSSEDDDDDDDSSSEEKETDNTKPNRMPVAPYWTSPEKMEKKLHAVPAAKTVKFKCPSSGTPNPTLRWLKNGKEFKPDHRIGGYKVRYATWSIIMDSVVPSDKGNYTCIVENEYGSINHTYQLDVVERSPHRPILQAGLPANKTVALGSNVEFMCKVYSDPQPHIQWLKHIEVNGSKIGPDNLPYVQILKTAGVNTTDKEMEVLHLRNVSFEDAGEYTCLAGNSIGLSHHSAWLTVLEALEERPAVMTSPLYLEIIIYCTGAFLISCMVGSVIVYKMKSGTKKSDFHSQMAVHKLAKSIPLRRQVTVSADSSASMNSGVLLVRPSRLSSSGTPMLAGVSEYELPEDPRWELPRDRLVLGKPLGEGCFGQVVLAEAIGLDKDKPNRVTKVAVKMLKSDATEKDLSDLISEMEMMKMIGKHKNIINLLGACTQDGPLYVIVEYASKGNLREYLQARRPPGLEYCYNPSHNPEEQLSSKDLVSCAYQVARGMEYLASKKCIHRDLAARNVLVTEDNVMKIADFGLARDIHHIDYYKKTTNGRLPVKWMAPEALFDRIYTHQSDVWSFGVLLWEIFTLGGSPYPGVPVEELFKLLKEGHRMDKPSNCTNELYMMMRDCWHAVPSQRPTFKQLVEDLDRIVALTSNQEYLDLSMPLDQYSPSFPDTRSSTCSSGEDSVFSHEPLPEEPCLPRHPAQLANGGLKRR

Chain of FGFR4 (P22455 22-802): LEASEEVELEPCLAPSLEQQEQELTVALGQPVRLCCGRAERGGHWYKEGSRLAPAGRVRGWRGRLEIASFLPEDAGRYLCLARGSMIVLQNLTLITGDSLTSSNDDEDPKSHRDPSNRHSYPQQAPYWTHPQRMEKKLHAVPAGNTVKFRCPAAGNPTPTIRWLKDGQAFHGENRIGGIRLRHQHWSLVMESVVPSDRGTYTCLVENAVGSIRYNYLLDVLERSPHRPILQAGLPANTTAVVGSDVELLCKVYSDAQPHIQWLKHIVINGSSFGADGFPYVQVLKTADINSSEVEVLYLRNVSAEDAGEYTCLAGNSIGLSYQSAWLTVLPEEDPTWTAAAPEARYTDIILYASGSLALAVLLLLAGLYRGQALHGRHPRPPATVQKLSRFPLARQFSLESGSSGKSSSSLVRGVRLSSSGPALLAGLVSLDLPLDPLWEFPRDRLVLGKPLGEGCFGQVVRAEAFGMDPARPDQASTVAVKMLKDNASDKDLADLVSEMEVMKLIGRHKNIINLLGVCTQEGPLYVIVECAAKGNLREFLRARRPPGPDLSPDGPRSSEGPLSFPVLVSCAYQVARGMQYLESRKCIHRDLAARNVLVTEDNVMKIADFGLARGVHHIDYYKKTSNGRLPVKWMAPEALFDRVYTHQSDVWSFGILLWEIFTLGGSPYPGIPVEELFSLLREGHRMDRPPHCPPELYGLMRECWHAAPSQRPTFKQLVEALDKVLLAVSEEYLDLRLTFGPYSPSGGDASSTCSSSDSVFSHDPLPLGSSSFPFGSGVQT

Binder	binding result (FGFR2 (IIIb))	binding result (FGFR3 (IIIb))	Kd (FGFR4)	koff (FGFR4)	kon (FGFR4)	Kd (FGFR1β (IIIc)/Fc)	koff (FGFR1β (IIIc)/Fc)	kon (FGFR1β (IIIc)/Fc)	Kd (FGFR1 (IIIb))	koff (FGFR1 (IIIb))	kon (FGFR1 (IIIb))
clone VM34 (VHH) VHH: QLQLVESGGGSVQAGGSLRLSCAASRSLSRFNVWTWYRQAPVKQRELVASITKSGDTNYAESVKGRFIISRDDDKNTVYLQMNNLKSEDTGIYYCAGSYYSGSYLYPSPGGFSVWGQGTQVTVSS	no binding	no binding	22.2 nM	0.0527 s⁻¹	2.37e+06 M⁻¹ s⁻¹	1.74 nM	0.00142 s⁻¹	819000 M⁻¹ s⁻¹	92.8 nM	0.0254 s⁻¹	274000 M⁻¹ s⁻¹
clone VM35 (VHH) VHH: QVQLVESGGGLVQAGGSLRLSCAVPGSIFRFNTMGWYRQPPGKQRELVAQMSRGGITKYGDSVKGRFTITRDNAKNTVHLQMNSLKPEDTAVYYCAGSYYSGSYYYPSPQGFSVWGQGTQVTVSP	–	–	–	–	–	1.02 nM	0.00114 s⁻¹	1.11e+06 M⁻¹ s⁻¹	–	–	–

From PMC9852558 (The Journal of Biological Chemistry, 2022)
